Values quoted from earlier work in paper PMC4365979.

Biological target: Rab11 (Homo sapiens) (UniProt P62491)
UniProt P62491, sequence (P62491 2-213): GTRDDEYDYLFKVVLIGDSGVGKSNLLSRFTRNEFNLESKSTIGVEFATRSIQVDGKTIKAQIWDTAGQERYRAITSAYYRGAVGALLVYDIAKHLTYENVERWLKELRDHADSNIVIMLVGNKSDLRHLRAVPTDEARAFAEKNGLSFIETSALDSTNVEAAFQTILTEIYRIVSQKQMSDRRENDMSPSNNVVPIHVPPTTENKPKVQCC

Kd: 50 nM
Substance: Rab11-FIP1/RCP (from UniProt Q6WKZ4)
